Patent US20180312565A1

Target: PD-L1 on PD-L1 expressing cells (IFNg-stimulated THP-1 cells; MDA-MB-231 cells) (UniProt Q9NZQ7)
Experiment: FACS, MDA-MB-231 cells, 1 µg/ml, other secondary antibody

Chain of PD-L1 on PD-L1 expressing cells (IFNg-stimulated THP-1 cells; MDA-MB-231 cells) (Q9NZQ7 19-290 limits assumed): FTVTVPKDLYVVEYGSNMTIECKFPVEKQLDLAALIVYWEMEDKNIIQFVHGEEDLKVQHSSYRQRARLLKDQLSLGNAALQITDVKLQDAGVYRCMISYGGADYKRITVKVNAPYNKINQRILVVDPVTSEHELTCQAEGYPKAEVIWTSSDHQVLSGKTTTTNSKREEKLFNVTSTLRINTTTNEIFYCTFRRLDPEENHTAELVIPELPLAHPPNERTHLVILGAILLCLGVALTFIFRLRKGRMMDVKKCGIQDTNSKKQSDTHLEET

mouse anti-PD-L1 antibody (R&D Systems, cat. no. MAB1561)
MFI: 610
